# Source: EP3172325B1
# Key:
# [1] = biological target: MART-1 peptide on HLA-A*02:01 (human); test: SPR, Biacore 3000, TCR amine-coupled to a CM5 chip, refolded pMHC injected up to 100 micromolar, 25 C, 1:1 Langmuir model (Fig. 2); soluble, other
# [2] = biological target: MART-1 peptide on HLA-A*02:01 (human); test: SPR, Biacore 3000, TCR amine-coupled to a CM5 chip, refolded pMHC injected, 25 C, 1:1 Langmuir model; Table 2 draws on Fig. 2 and published work (PMID: 24550723); soluble, other
# [3] = biological target: MART-1 peptide on HLA-A*02:01 (human); test: SPR, Biacore 3000, TCR amine-coupled to a CM5 chip, refolded pMHC injected up to 100 micromolar, 1:1 Langmuir model (Fig. 4); weaker than αD26Y/βL98W (0.024) and wild-type DMF5 (9.5); soluble, other
# [4] = biological target: MART-1 peptide on HLA-A*02:01 (human); test: SPR, Biacore 3000, TCR amine-coupled to a CM5 chip, refolded pMHC injected up to 100 micromolar, 1:1 Langmuir model (Fig. 4); soluble, other
# [5] = biological target: MART-1 peptide on HLA-A*02:01 (human); test: SPR, Biacore 3000, TCR amine-coupled to a CM5 chip, refolded pMHC injected, 25 C; the same value stands in Table 2 r6, where the peptide is printed as AAG; soluble, other
substance,measurement,setting,value
DMF5 TCR αD26Y,Kd,[1],4500 nM
same,Kd,[2],460 nM
DMF5 TCR αD26Y/αY50A/βL98W,Kd,[3],556000 nM
DMF5 TCR αD26Y/αY50F/βL98W,Kd,[4],640 nM
DMF5 TCR αD26Y/αY50V/βL98W,Kd,[4],7140 nM
DMF5 TCR αD26Y/αY50W/βL98W,Kd,[4],660 nM
DMF5 TCR αD26Y/βL98W,Kd,[5],24 nM
DMF5 TCR βL98W,Kd,[2],2900 nM
